Molecular target: T1, Glycoprotein VI extracellular domain (Gln21-Lys267) (Homo sapiens, UniProt Q9HCN6 SEQ:1-247)
T1 chain: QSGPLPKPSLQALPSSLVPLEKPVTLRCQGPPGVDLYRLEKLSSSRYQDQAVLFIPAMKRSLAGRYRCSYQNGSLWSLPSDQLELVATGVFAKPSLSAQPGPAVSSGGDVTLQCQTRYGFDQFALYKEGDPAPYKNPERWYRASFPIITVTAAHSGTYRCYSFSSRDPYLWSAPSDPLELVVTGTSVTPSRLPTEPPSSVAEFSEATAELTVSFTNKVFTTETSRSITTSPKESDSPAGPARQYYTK
Assay: filter; binding comparable with and without annealed 3' primer
Details: tags: C-terminal His6; R&D Systems 3627-GP; label: 5'-32P; 3' fixed region paired with DNA primer
Method: The reaction was phenol:chloroform:isoamyl alcohol (25:24:1) extracted, chloroform: isoamyl:alcohol (24:1) extracted, and ethanol precipitated. Three pmoles of dephosphorylated RNA was end labeled with T4 Poylnucleotide Kinase with supplied buffer, and 20 μCi of γ-P³²-ATP and subsequently cleaned with a Biorad MicroBio Spin P-30 spin column. End-labeled RNA was diluted to a final concentration of 2000 cpm/μL and heat denatured at 65° C. for 5 minutes. RNA and GPVI dilutions were equilibrated at 37° C. prior to use. RNA (5 μL) was added to varying concentrations of GPVI (15 μL) at 37° C. and incubated together for 5 to 15 minutes. The complexed RNA/GPVI protein mixture was then loaded over a Protean BA85 nitrocellulose membrane, overlayed on a Genescreen Plus Nylon membrane, in a 96 well vacuum manifold system with washing. The membranes were exposed to a phosphorimager screen, scanned, and quantitated with a Molecular Dynamics Storm 840 Phosphorimager. The fraction bound was calculated by dividing the counts on the nitrocellulose by the total counts and adjusting for the background. Results for binding of enriched ligand libraries from round 10 E2 and round 10 EF of the SELEX as compared to the GPVI-naïve starting ligand library are shown in FIG. 3. […]

B1: EF-3 annealed to 3' DNA primer (mixed)
RNA: GGGAGGACGAUGCGGAUCACACCGCGUCUUGCGUAAGCCUCCUACUAACGGAUCGCAGACGACUCGCUGAGGAUCCGAGA
DNA: TCTCGGATCCTCAGCGAGTCGTCTG
modifications: RNA strand 2'-F C and U; 2'-OH A and G
binding result: binds

— patent US20100311820, “NUCLEIC ACID MODULATORS OF GLYCOPROTEIN VI” (Regado Biosciences, Inc, published 2010)
